Experimental data taken from article PMC3590988 (The EMBO Journal, 2013).

T1: ScWpl1^259–647 (Wapl domain of Saccharomyces cerevisiae Wpl1), wild type (S. cerevisiae, UniProt Q99359 259-647)
T1 sequence (looked up): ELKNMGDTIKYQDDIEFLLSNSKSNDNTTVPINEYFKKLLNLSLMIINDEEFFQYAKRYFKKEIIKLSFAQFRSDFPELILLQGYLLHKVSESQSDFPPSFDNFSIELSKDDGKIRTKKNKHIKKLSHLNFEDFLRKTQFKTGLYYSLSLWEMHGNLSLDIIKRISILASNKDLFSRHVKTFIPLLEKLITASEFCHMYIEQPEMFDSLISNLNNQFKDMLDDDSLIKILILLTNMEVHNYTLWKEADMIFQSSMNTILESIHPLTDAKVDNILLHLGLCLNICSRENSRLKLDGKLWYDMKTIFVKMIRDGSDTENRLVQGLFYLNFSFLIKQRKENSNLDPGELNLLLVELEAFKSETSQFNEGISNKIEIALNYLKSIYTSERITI

T2: ScWpl1^259–647 N493A N622A L577R (S. cerevisiae, UniProt Q99359 259-647, N493A | N622A | L577R)
T2 sequence (looked up): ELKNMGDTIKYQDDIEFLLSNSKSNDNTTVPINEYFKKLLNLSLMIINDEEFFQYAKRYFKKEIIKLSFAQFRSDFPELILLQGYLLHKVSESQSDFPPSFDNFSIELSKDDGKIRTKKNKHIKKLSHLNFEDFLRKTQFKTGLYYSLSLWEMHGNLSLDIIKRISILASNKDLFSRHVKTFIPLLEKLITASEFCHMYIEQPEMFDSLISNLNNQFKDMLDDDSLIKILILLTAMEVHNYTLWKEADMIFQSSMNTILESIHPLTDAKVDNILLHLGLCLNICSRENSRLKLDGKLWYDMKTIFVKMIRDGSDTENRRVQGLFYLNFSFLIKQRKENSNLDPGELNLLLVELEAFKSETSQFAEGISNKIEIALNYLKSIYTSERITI

T3: ScWpl1^259–647 K376Q K377Q K382Q K383Q (S. cerevisiae, UniProt Q99359 259-647, K376Q | K377Q | K382Q | K383Q)
T3 sequence (looked up): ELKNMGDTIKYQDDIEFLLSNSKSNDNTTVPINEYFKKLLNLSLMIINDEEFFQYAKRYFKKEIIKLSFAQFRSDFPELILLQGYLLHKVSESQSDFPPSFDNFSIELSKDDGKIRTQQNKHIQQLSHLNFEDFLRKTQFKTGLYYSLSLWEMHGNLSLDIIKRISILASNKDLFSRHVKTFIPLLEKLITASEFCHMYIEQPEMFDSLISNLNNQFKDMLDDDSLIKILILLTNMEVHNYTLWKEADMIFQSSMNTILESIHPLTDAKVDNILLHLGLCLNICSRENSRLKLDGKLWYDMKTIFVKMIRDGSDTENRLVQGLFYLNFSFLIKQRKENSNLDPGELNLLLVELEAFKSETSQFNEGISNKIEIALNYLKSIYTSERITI

T4: ScWpl1^259–647 D271A D272A (S. cerevisiae, UniProt Q99359 259-647, D271A | D272A)
T4 sequence (looked up): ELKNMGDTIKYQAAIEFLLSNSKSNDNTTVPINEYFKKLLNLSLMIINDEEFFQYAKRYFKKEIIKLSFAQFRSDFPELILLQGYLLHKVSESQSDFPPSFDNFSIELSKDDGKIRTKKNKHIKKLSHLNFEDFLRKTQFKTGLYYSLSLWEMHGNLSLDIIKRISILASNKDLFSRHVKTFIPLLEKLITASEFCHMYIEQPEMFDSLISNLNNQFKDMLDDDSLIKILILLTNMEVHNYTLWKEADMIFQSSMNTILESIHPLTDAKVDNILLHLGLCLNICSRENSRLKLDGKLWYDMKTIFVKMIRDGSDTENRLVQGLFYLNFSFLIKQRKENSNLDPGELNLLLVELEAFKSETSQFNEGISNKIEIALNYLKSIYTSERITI

T5: ScWpl1^259–647 N493E N622E (S. cerevisiae, UniProt Q99359 259-647, N493E | N622E)
T5 sequence (looked up): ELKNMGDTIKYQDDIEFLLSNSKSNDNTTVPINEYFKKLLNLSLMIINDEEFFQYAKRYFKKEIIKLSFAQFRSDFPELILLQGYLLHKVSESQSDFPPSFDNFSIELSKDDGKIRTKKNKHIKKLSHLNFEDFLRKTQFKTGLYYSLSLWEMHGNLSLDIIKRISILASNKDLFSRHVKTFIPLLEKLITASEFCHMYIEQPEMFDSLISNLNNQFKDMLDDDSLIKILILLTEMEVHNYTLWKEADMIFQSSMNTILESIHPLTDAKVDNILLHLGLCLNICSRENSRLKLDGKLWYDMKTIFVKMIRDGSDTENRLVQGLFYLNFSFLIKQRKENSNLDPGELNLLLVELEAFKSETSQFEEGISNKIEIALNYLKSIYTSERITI

T6: ScWpl1^259–647 N493A N622A L532E (S. cerevisiae, UniProt Q99359 259-647, N493A | N622A | L532E)
T6 sequence (looked up): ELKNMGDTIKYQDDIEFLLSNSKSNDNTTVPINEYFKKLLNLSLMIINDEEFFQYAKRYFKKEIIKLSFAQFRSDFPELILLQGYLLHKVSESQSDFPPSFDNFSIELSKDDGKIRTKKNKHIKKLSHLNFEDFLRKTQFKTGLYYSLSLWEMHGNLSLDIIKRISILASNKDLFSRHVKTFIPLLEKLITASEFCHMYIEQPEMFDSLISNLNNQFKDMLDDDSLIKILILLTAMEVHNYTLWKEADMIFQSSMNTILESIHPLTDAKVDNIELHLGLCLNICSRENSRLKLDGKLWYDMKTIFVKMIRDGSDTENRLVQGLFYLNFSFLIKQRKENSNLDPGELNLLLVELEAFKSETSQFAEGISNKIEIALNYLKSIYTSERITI

B1: GST-tagged ScSmc3 ATPase head (ScSmc3^AH), wild type (domain or fragment, S. cerevisiae)
chain: MYIKRVIIKGFKTYRNETIIDNFSPHQNVIIGSNGSGKSNFFAAIRFVLSDDYSNLKREERQGLIHQGSGGSVMSASVEIVFHDPDHSMILPSGVLSRGDDEVTIRRTVGLKKDDYQLNDRNVTKGDIVRMLETAGFSMNNPYNIVPQGKIVALTNAKDKERLQLLEDVVGAKSFEVKLKASLKKMEETESGGSGGKVSENFEAVFERLVPRGTAKLIIHRKNDNANDHDESIDVDMDAESNESQNGKDSEIMYTGVSISVSFNSKQNEQLHVEQLSGGQKTVCAIALILAIQMVDPASFYLFDEIDAALDKQYRTAVATLLKELSKNAQFICTTFRTDMLQVADKFFRVKYENKISTVIEVNREEAIGFIRGSNKFAEV
B2: GST-tagged ScSmc3^AH L163A L166A D168A (domain or fragment, S. cerevisiae)
chain: MYIKRVIIKGFKTYRNETIIDNFSPHQNVIIGSNGSGKSNFFAAIRFVLSDDYSNLKREERQGLIHQGSGGSVMSASVEIVFHDPDHSMILPSGVLSRGDDEVTIRRTVGLKKDDYQLNDRNVTKGDIVRMLETAGFSMNNPYNIVPQGKIVALTNAKDKERAQLAEAVVGAKSFEVKLKASLKKMEETESGGSGGKVSENFEAVFERLVPRGTAKLIIHRKNDNANDHDESIDVDMDAESNESQNGKDSEIMYTGVSISVSFNSKQNEQLHVEQLSGGQKTVCAIALILAIQMVDPASFYLFDEIDAALDKQYRTAVATLLKELSKNAQFICTTFRTDMLQVADKFFRVKYENKISTVIEVNREEAIGFIRGSNKFAEV
B3: GST-tagged ScSmc3^AH K112N K113N (domain or fragment, S. cerevisiae)
chain: MYIKRVIIKGFKTYRNETIIDNFSPHQNVIIGSNGSGKSNFFAAIRFVLSDDYSNLKREERQGLIHQGSGGSVMSASVEIVFHDPDHSMILPSGVLSRGDDEVTIRRTVGLNNDDYQLNDRNVTKGDIVRMLETAGFSMNNPYNIVPQGKIVALTNAKDKERLQLLEDVVGAKSFEVKLKASLKKMEETESGGSGGKVSENFEAVFERLVPRGTAKLIIHRKNDNANDHDESIDVDMDAESNESQNGKDSEIMYTGVSISVSFNSKQNEQLHVEQLSGGQKTVCAIALILAIQMVDPASFYLFDEIDAALDKQYRTAVATLLKELSKNAQFICTTFRTDMLQVADKFFRVKYENKISTVIEVNREEAIGFIRGSNKFAEV
B4: GST-tagged ScSmc3^AH L163D L166D (domain or fragment, S. cerevisiae)
chain: MYIKRVIIKGFKTYRNETIIDNFSPHQNVIIGSNGSGKSNFFAAIRFVLSDDYSNLKREERQGLIHQGSGGSVMSASVEIVFHDPDHSMILPSGVLSRGDDEVTIRRTVGLKKDDYQLNDRNVTKGDIVRMLETAGFSMNNPYNIVPQGKIVALTNAKDKERDQLDEDVVGAKSFEVKLKASLKKMEETESGGSGGKVSENFEAVFERLVPRGTAKLIIHRKNDNANDHDESIDVDMDAESNESQNGKDSEIMYTGVSISVSFNSKQNEQLHVEQLSGGQKTVCAIALILAIQMVDPASFYLFDEIDAALDKQYRTAVATLLKELSKNAQFICTTFRTDMLQVADKFFRVKYENKISTVIEVNREEAIGFIRGSNKFAEV

Assays:
Test in all cases: BLI
[1] = target: T1, ScWpl1^259–647 (Wapl domain of …)
[2] = target: T2, ScWpl1^259–647 N493A N622A L577R
[3] = target: T3, ScWpl1^259–647 K376Q K377Q K382Q K383Q
[4] = target: T4, ScWpl1^259–647 D271A D272A
[5] = target: T5, ScWpl1^259–647 N493E N622E
[6] = target: T6, ScWpl1^259–647 N493A N622A L532E

Binder | Kd [1] [nM] | koff [1] [s⁻¹] | kon [1] [M⁻¹ s⁻¹] | Kd [2] [nM] | koff [2] [s⁻¹] | kon [2] [M⁻¹ s⁻¹] | Kd [3] [nM] | koff [3] [s⁻¹] | kon [3] [M⁻¹ s⁻¹] | Kd [4] [nM] | koff [4] [s⁻¹] | kon [4] [M⁻¹ s⁻¹] | Kd [5] [nM] | koff [5] [s⁻¹] | kon [5] [M⁻¹ s⁻¹] | Kd [6] [nM] | koff [6] [s⁻¹] | kon [6] [M⁻¹ s⁻¹]
B1 | 47 | 0.000248 | 5220 | 77 | 0.000428 | 5540 | 200 | 0.00056 | 2800 | 167 | 0.000395 | 2370 | 126 | 0.000492 | 3920 | 82 | 0.000344 | 4200
B2 | 104 | 0.000497 | 4770 | – | – | – | – | – | – | – | – | – | – | – | – | – | – | –
B3 | 88 | 0.000431 | 4880 | – | – | – | – | – | – | – | – | – | – | – | – | – | – | –
B4 | 102 | 0.000597 | 5880 | – | – | – | – | – | – | – | – | – | – | – | – | – | – | –
